Test results: the DeepSol protein solubility set

Test: soluble on expression in E. coli; label from the status in PepcDB or PDB records

Soluble on expression in E. coli, not soluble:
MGSDKIHHHHHHMNFKRLIIYEAFARAYPGEKGKKFDSLIKDLERLKGMGINTVWLMPIHPTGIEGRKGTLGSPYAIRDYYEIDPLIGTKDDFKRFVKRAHELNMYVLMDMVLNHAAADNVLVREHPEWFLRDEKGNPTRKVPDWTDIVDFDYSNGELRKYMINMMKYWVEEFDVDGFRCDVAGLVPLDFWLQARKELDPVKRLIWLSETHDPYMYQAFDITYDYDGYYKFRDFIEGRGSLREYVDFLRMQDHMYPRGYIKMRFLENHDQPRIAKFIEEDSLVHWIAFLFTFKGVPLVHNGQEYGLKEDVDIFNEYTLPFPMEENRISILHRKLAHYRYGTSVFSEGEMLFVKNDQPEKVISYLWRYENRYILCMLNPLLENTKVTLDFSGIWESACIHSKNVFNDEIVRVPVKNSRATVEIGKEPLILSFVLY
MGSDKIHHHHHHMNFVTTIGLEVHVELKTNSKIFSPSPVQFGSEPNANTNVIDWGYPGVLPTPNKGVVEAGIKAATALHAEIEHHTYFDRKNYFYPDNPKAYQITQHEKPIAHDGWIEIEVDGKKKKIGIEEMHIEEDAGKNTHENDYSYVDLNRQGTPLIEIVSKPDIASPEEAYAYCEALRQRIQFTGVSDVKMEEGSMRVDVNISIRPAGSDKYGVKTEMKNLNSFNYVRKSLEYEEQRQQQVLMAGGKIQQETRRFDETTGQTILMRVKEGSDDYRYFPEPDIPAVDIDDDWIASVKKTIPEMPGSRRERYINEFGLTAYDAGVLTQTKEMSDFFDATVAEGADPKLASNYLQGDVNAYLNEHKVDLLATDLTPTNLAGMIKMISDETISSKIAKKVFKAIMAGSEPVQWVNDKGLVQLSDPAKLQPIVDDVLDNNQQSIDDFKNGKDRAVGFLVGQIMKKTRGQANPKVVNQLLMTSLKAR
MGSDKIHHHHHHMNIIICDDRIDDRKNLSDLLSDYGEKKNYEFTITEYDSGEQLCEEQSALEACQLLFLDINMQGMDGLKTAMRIKEKYPKLPVVLVTAYMNYALDGYKVKASRFLLKDNLADTIEECMDDLIAEINKNRRILEFRFVEGTIKLYADDIIYIETELHKNVFYTEKGTFQIYKKLDELENEFKDMGFVRAHLSFLVNMRYITKISGYVMTLTTGKKIPVPKARYAQVKREYMLYKGEE
MGSDKIHHHHHHMNILIKIRELTNLTNSEKELANYIVVNPKKTLQFKPKELAQAAFVSAATIYRLINKLGLNGIGELKIEIASSLRETNEEKEINYDYPILESDTPYQIMTNLNQIYKGTIDETLNNADPEELVKIGEKLIKAKTIDVYAASANLFFAQNFKFQMQEIGVLVNVPEEDYIQSLSAANSDKDHIAIVVSYGGRSRTLQRVVKILSENDVDIILITSMQANPLVEFATHKIYMASAENHYNKVSSFSTRQSLLSIFDTLYSVYFNHDYEKNIQYKTTNYQKMNSELE
MGSDKIHHHHHHMNIPIKTLQCFLTLVETENFTRAAQKCFITQPTLSKIIQRLEESLGETLLIRNNQKVELTQAGQLFEHSAREILGQWHRLQEDMSNLSGLKSGRLRLGVCPMMSSLIIGLLTSYRKRYPGVELQMYEYGGFGCEQALLNNSLDIAFTALPTTHETELINQPLTKYPLLACLPEAHPLAAKSYLSWQDFEPYPFILYNEDFSLAKLINRLSRKAGVQLNIAFRSGQWDFLATMVEADMGLAILPEPICQKLSNSKLVFRPMQPALTWDLALIWRQNLPLTPAANALLELSKQKA
MGSDKIHHHHHHMNITIATLGELLVEFLAKKENQGFSSPGEFWGPYPSGAPAIFADQVAKLGFRSLLFSCVGNDAFGVMNITRLSRDGVNVQGISVLPNATTGSAFVSYRSQAQRDFIFNMPDSACGLLSADHLDETLLRQYRHFHIMGSSLFSFRLIDAVRKAISIVKENGGTISFDPNIRKEMLKIREMSQAFEYILDYTDFFLPSDGELDYFGLSKSRDEEKIVARLHKRGIAHVIIKRGARGASYYSKDEQHHVAGYPVKVVDPTGAGDCFGATFVSLFLAGYSVPDALAHANAAGSLAISARGPMEGTSTLAQIKELMRQQN
MGSDKIHHHHHHMNIVTLISWDFKRNNESFQRAIINGYDYWSRILDDHGVEKYVILLTCNRVELYYRGDPFDVQEKGYNIISDDMAINHLFHVAAGLDSMSIGENEVLKQVKQAYEKSSSMGKSDKFLSLIFQRAISVGKLVRSKTGIGKGKVSIPSIVYDIVRKNGGNKILLVGNGMLASEIAPYFSYPQYKVTVAGRNIDHVRAFAEKYEYEYVLINDIDSLIKNNDVIITATSSKTPIVEERSLMPGKLFIDLGNPPNIERGNNVITLDEIYEISKKNEMLREEKINQAEILIENEMKATMNKIKDLMIDDIFSQFYRFASVVQTMEIQKFRKMHPEVNENDLEALAHSIINKILNVPVTTLKAVSRSQGNSDFNRLFESFSSNFNDIVSAALQSYEGLRDTQSLRDRTRQLLQKS
MGSDKIHHHHHHMNKGVPLKTRAEVNAFNGSKMLKVIGLDEFVSNGICDNRHCLLLPNYNPNQRELLSLDWGAVAIQCGGIPSNLTIPVISKLEHPEVISTGDVIVLNENRVDILYRRKSTANLLFVTERCNHQCIMCSQPPKVLDDGWHFEECHQLLELIDRDIPVLGISGGEPTLQRDGFLKLLEHAKKALPSTQLHILTNGSAFEEYLYVEQIIQLGHQQIVWGIPIYGSTPQQHDYHTQVLGSFNKTMHGLYNLGHVGAQIELRVVLTRPIIENIVELSEFIARNLPFVSTVALMGLEPTGFARTNYEAVWCDLNDYQEELLEGTHVLLSSGLDTVLYNIPRCHVPKSLRSIAVQSISDWKNSTRKECEYCEEQNLCCGFFKSHTQRFSEQNVKPIQLERRSENVVRT
MGSDKIHHHHHHMNKTCERTSGDCTGESKARAASDRVTPCFTPGTLIATPRGERLVENLQVGDRVITRDNGIQEIRWFGHNAMGPQDLSHASHLQPILIRQGALGNGLPERDMMVSPNHRVLVANDKTALYFEDREVLVAAKHLTGLTGIDAIVTTAVTYIHFMFNQHEVVLSDGAWTESFQPVDQSLRGLDNAQRNEIFELFPELRTKEGQKAYPSARRELKEREARMLLH
MGSDKIHHHHHHMNLDHLRYFVALSRTENYTQTAKLLHITQPSLTKAIHSLEAELNIDLFQKAGRSVTLTPAGKVFASDVESALLLLDKSVTNIKRFDQQKAPIRIAALRTLSIKWLPDIAQRFLQLSPHAAVQFQFNTDTGLSPDILNGLRNNKYDVAFCSKMDHFSDIEFFPVAEQTMVCITPTTHPLANRSSINLAETLAYPQITFSQRSGLHPIMQKLFNDCGGQPISAYAVEEDQAIAGLVASGFGIAVVPNMSILQTMPVKIIPLSFPTWQRILYMGTLKHRTPQPAVEEFITFVRDQSKTLSVNNI
MGSDKIHHHHHHMNLKTSIENNVHIRAVAAAADELGLETYIVGGYVRDLIMDRDNKDIDFVCLGSGIELAQKVAANMGEHVQVHIFKTFGTAMINAGDTELEFVGARKESYDFNSRKPTVESGTLEDDQLRRDFTINALAICLNKARFGELVDPFDGVSDIKRKIIKTPQDALLTFSDDPLRMIRAVRFATQLNFDIEAATFQAIATNKDRLSIVSMERISQELNKIISAPVPSYGFKLLYISGVLKDIFPEFVALHGVESIDNKSHKDNFYHTLQVLDNVAKVSDDLWLRWAAILHDIAKPLTKRFVERIGWTFHGHEDKGARMVPAIFRKLRLPLNEKMDMVAKLVRLHLRPISLVKDEVTDSAVRRLMFEAGEHFSDLMILCRADVTSKNNNKVKRYLENFDKVERKVIEVEEKDQQRNFQPVVSGEDIMKTFDIKPGKVIGDIKADLIEAILEGDVQNEYEILFPFMINLAEKKYGLVKPETH
MGSDKIHHHHHHMNLRQLKYFLATAELGQVSRAASELSISQSSVTTAIRELEQSMGTTLFNRTAHGMDLTPTGRDLMSAARDVMEKVQIAQDIGQNHSDVTGTINIAATYTVCGYFLPYHLDRLSHRFPNLTINISELNRESIEEGLISNRFDVAVILTSNTSNPELATQTLMRSHRRLWVPQNHPLAGREFASFEDVAAQDYIMLTVDEAANTSMKYWGPTGLMPRVRMRTSSTEAVRSMVANGLGVTILSDMVYRPWSLEGRRISTVVMDREIPSMDVGLAWRRNQEMPNAARHFVDYFRNAYLSPQMAHTAWRG
MGSDKIHHHHHHMNNKEIFEELATLARQPAIWFAARSFYGHGGNQRPDNSRRLLRVLAETDNNLTAGAIADILAIRPASVTQIIKKLENDEYIQRVRDESDARVVRVKITSKGRKQLELLEDKQSDFQTELFDVFDDDERQRFGESLRKLNEHVMSDEYLDNMRSKMDKHMRFGFDHFVNVSNARKFHENQTGYLKKMRQHQQQSPFNDEDNEGI
MGSDKIHHHHHHMNNLPLLDNNWNTDLYEDKHAFVWQYGENLLKVLNPKLGESILDLGCGTGQLTEKIAQAGAEVTGIDRASSMIETARQNYPHLRFDVADARDFQVLKPLDAVFSNAVLHWIKEADAAIASIHQALKPGGRFVAEFGGKGNIQAIVTALYSALEAIAISPQALNPWYFPSIGEYATLLEQQGFDVTYATLFARPTPLTEGEAGMANWLEMFADVFLAGLSADQKIQIIRTVEEHLLPTLYQQGNWTADYRRIRIVAIKL
MGSDKIHHHHHHMNNSLAFNHDTLPQKVMFGYGKSSAFLKQEVERRGSAKVMVIAGEREMSIAHKVASEIEVAIWHDEVVMHVPIEVAERARAVATDNEIDLLVCVGGGSTIGLAKAIAMTTALPIVAIPTTYAGSEATNVWGLTEAARKTTGVDLKVLPETVIYDSELTMSLPVEMSVASGLNGLAHCIDSLWGPNADPINAVLAAEGIRALNQGLPKIVANPHSIEGRDEALYGAYLAAVSFASAGSGLHHKICHTLGGTFNLPHAQTHATVLPYVLAFNAGDAPEAERRAAAAFGTDTALEGLQRLRLSVNAPKRLSDYGFEASGIAEAVDVTLEKVPANNPRPVTRENLSRLLEAALNGEDPAVLSAVLSN
MGSDKIHHHHHHMNPELLQKYIAGNATEAEKQRVTEWIQENPENMREYMAQRKLHDMALWRTEPVAEENSRERKHFSLRGVCMEAAKIAAVLAIVLLGTHYWTGKHQVPEDKTWQSIYVPAGQRAELMLADGTKVWLNSRSTLTFPGSFKGNIRNVKLDGEGYFAVTKNVEQPFIVETNKCNVKVLGTEFNVMAYAADSVWETSLLEGAVEILVPGSNNSGMRLEPNMMASLKGNRLVKGRIKEVDYFLWREGLLCFNDISVRDMIEKLKLYYGVDIVVNNTRILKNRYTGKFRTKDGVEHVLKVLRLNNKFTYTKDDETNVITIN
MGSDKIHHHHHHMNPGIEKYEIRFDFDLKDFTYTSHERIHLAGDWKDIKLDAVRLSVDKVTCNGQPMRFETGQDTVTVKGSFHDKDVIDIDFHAKVSDTLMGLYLSRTKEGTMITTQFESNGARMAFPCVDHPAYKAVFAITVVIDKDYDAISNMPPKRIEVSERKIVEFQDTPKMSTYLLYIGVGKFKYATDKYRDIDLILVSLKDIKSKYPLEIARKSIEFYESYFGIPYALPKMHLISVPEFGAGAMENWGAITFREVALMATENSGSIMKQNAAITIAHEIAHQWFGDLVTMKWWNDLWLNESFATFMSYKTVDSFSKQWDVFADFIRSETGGALRSDSLKNTHPIEVDVKDPDEISQIFDEISYGKGASILRMIEDYAGYEEFRKGISKYLNDHRYGNAEGSDLWTAIEDVSGKPVKRVMEYWIKNPGYPVVSVVKSGNKFRLTQEQFFLDGTRGQGKWPIPLTVMTKSGKKAMLMEESAEIEDMVKVNVNSSGFYRVSYDGESFETVMKNYSKLSNLDRWGLISDLYAFLISGRVSVDDYLARIKGFFEDSDHLIVEEIASQLTGLYLLKPDSNRIRETAASYLSRQVVALGDKQKGEDDKISKIRGIVTQDLAMVDDHFASDLARKFSTLAEDPDLALAKSIAAAKAYGISELASAADKYTDDEIRVRIIAAMGWCSPSDLKSVFELIDKGTIRKQDMLYVFSNMPANPKGRDFFFSNIDRIVALMEHAFEGTGYTSRILETAIPYLGLARYEDVKKKAEQIRKPSYNVGINKGLETLEIVRKLYNKL
